The values below are quoted from earlier work in publication PMC7101271.

The target in the series is Rab7 (UniProt P51149).
Chain of UniProt P51149 (P51149 2-207): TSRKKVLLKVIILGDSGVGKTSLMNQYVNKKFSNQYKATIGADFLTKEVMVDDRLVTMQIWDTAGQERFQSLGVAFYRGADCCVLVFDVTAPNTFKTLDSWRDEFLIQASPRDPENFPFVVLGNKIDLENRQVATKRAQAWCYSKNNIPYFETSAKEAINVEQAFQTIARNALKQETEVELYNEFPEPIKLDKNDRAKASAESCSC

For the substance GDI (from UniProt P21856), the Kd was greater than 50 µM.
